Experimental data reported in patent US20210032299A1 (Eli Lilly, published 2021).
Starred links: 1 amine or outer side, 2 acyl side, 3 side chain; linkers in the order of their positions; H or OH if unused. Non-standard residues stand in square brackets, D forms with d. Groups on a side chain read outwards from the residue. No end group written: not given here. *: point of attachment. C20 diacid = O=C(O)CCCCCCCCCCCCCCCCCCC(=O)*; γGlu = O=C(O)[C@H](CCC(=O)[*:2])N[*:1]; αMeF = C[C@](N)(Cc1ccccc1)C(=O)O; 4Pal = N[C@@H](Cc1ccncc1)C(=O)O; αMeL = CC(C)C[C@](C)(N)C(=O)O; AEEA = NCCOCCOCC(=O)O; Aib = CC(C)(N)C(=O)O

T1: human glucose-dependent insulinotropic peptide receptor (human, UniProt P48546 22-466)
T1 sequence (looked up): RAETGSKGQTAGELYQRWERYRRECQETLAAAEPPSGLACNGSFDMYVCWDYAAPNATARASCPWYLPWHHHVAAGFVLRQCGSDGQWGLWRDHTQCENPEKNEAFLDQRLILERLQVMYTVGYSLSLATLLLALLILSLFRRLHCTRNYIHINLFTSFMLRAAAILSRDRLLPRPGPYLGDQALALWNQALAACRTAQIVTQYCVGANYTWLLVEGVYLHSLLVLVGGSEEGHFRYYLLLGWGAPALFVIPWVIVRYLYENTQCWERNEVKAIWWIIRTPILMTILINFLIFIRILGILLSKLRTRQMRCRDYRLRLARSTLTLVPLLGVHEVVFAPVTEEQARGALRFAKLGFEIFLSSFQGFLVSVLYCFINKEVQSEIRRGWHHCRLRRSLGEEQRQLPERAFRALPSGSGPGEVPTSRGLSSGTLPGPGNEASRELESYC


Tests used:
Assay in all cases: cell-based or functional assay
human glucagon receptor = human glucagon receptor (human, UniProt P47871 26-477)
human GLP-1 receptor = human GLP-1 receptor (human, UniProt P43220 24-463)
[1] = target: T1, human glucose-dependent insulinotropic …

human glucagon receptor, sequence (P47871 26-477): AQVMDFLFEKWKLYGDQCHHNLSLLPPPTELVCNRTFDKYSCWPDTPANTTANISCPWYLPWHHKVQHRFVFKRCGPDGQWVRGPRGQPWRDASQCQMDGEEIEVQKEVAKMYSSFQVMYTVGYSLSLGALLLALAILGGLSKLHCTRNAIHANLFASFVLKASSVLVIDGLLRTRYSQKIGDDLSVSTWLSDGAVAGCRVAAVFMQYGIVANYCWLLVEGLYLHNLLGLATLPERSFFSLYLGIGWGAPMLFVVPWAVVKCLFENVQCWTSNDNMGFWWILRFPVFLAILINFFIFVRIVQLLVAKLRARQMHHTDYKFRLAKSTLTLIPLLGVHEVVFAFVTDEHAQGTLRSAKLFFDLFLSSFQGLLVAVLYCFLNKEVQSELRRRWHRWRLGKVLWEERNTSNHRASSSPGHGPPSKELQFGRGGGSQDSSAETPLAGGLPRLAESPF

Binder | hGcgR cAMP Rel EC50 (human glucagon receptor) [µM] | hGLP1R cAMP Rel EC50 (human GLP-1 receptor) [nM] | hGIPR cAMP Rel EC50 [1] [nM]
Y[Aib]EGTFISDYSI[αMeL]LDKK([AEEA-AEEA-γGlu-C20 diacid])HQ[Aib]EFVEYLLEQGPSSGAPPPS-NH2 (N-terminus assumed; SMILES CC[C@H](C)[C@H](NC(=O)[C@H](Cc1ccccc1)NC(=O)[C@@H](NC(=O)CNC(=O)[C@H](CCC(=O)O)NC(=O)C(C)(C)NC(=O)[C@@H](N)Cc1ccc(O)cc1)[C@@H](C)O)C(=O)N[C@@H](CO)C(=O)N[C@@H](CC(=O)O)C(=O)N[C@@H](Cc1ccc(O)cc1)C(=O)N[C@@H](CO)C(=O)N[C@H](C(=O)N[C@@](C)(CC(C)C)C(=O)N[C@@H](CC(C)C)C(=O)N[C@@H](CC(=O)O)C(=O)N[C@@H](CCCCN)C(=O)N[C@@H](CCCCNC(=O)COCCOCCNC(=O)COCCOCCNC(=O)CC[C@H](NC(=O)CCCCCCCCCCCCCCCCCCC(=O)O)C(=O)O)C(=O)N[C@@H](Cc1c[nH]cn1)C(=O)N[C@@H](CCC(N)=O)C(=O)NC(C)(C)C(=O)N[C@@H](CCC(=O)O)C(=O)N[C@@H](Cc1ccccc1)C(=O)N[C@H](C(=O)N[C@@H](CCC(=O)O)C(=O)N[C@@H](Cc1ccc(O)cc1)C(=O)N[C@@H](CC(C)C)C(=O)N[C@@H](CC(C)C)C(=O)N[C@@H](CCC(=O)O)C(=O)N[C@@H](CCC(N)=O)C(=O)NCC(=O)N1CCC[C@H]1C(=O)N[C@@H](CO)C(=O)N[C@@H](CO)C(=O)NCC(=O)N[C@@H](C)C(=O)N1CCC[C@H]1C(=O)N1CCC[C@H]1C(=O)N1CCC[C@H]1C(=O)N[C@@H](CO)C(N)=O)C(C)C)[C@@H](C)CC) [Example 63] | 1.17 | > 5000 | 0.0398
Y[Aib]EGT[αMeF]ISDYSI[αMeL]LDKK([AEEA-AEEA-γGlu-C20 diacid])HQ[Aib]EFVE[4Pal]LLAAGPSSGAPPPS-NH2 (N-terminus assumed; SMILES CC[C@H](C)[C@H](NC(=O)[C@H](CO)NC(=O)[C@H](Cc1ccc(O)cc1)NC(=O)[C@H](CC(=O)O)NC(=O)[C@H](CO)NC(=O)[C@@H](NC(=O)[C@](C)(Cc1ccccc1)NC(=O)[C@@H](NC(=O)CNC(=O)[C@H](CCC(=O)O)NC(=O)C(C)(C)NC(=O)[C@@H](N)Cc1ccc(O)cc1)[C@@H](C)O)[C@@H](C)CC)C(=O)N[C@@](C)(CC(C)C)C(=O)N[C@@H](CC(C)C)C(=O)N[C@@H](CC(=O)O)C(=O)N[C@@H](CCCCN)C(=O)N[C@@H](CCCCNC(=O)COCCOCCNC(=O)COCCOCCNC(=O)CC[C@H](NC(=O)CCCCCCCCCCCCCCCCCCC(=O)O)C(=O)O)C(=O)N[C@@H](Cc1c[nH]cn1)C(=O)N[C@@H](CCC(N)=O)C(=O)NC(C)(C)C(=O)N[C@@H](CCC(=O)O)C(=O)N[C@@H](Cc1ccccc1)C(=O)N[C@H](C(=O)N[C@@H](CCC(=O)O)C(=O)N[C@@H](Cc1ccncc1)C(=O)N[C@@H](CC(C)C)C(=O)N[C@@H](CC(C)C)C(=O)N[C@@H](C)C(=O)N[C@@H](C)C(=O)NCC(=O)N1CCC[C@H]1C(=O)N[C@@H](CO)C(=O)N[C@@H](CO)C(=O)NCC(=O)N[C@@H](C)C(=O)N1CCC[C@H]1C(=O)N1CCC[C@H]1C(=O)N1CCC[C@H]1C(=O)N[C@@H](CO)C(N)=O)C(C)C) [Example 62] | > 5 | 58.2 | 0.0116
Y[Aib]EGT[αMeF]ISDYSI[αMeL]LDKK([AEEA-AEEA-γGlu-C20 diacid])HQ[Aib]EFVE[4Pal]LLATGPSSGAPPPS-NH2 (N-terminus assumed; SMILES CC[C@H](C)[C@H](NC(=O)[C@H](CO)NC(=O)[C@H](Cc1ccc(O)cc1)NC(=O)[C@H](CC(=O)O)NC(=O)[C@H](CO)NC(=O)[C@@H](NC(=O)[C@](C)(Cc1ccccc1)NC(=O)[C@@H](NC(=O)CNC(=O)[C@H](CCC(=O)O)NC(=O)C(C)(C)NC(=O)[C@@H](N)Cc1ccc(O)cc1)[C@@H](C)O)[C@@H](C)CC)C(=O)N[C@@](C)(CC(C)C)C(=O)N[C@@H](CC(C)C)C(=O)N[C@@H](CC(=O)O)C(=O)N[C@@H](CCCCN)C(=O)N[C@@H](CCCCNC(=O)COCCOCCNC(=O)COCCOCCNC(=O)CC[C@H](NC(=O)CCCCCCCCCCCCCCCCCCC(=O)O)C(=O)O)C(=O)N[C@@H](Cc1c[nH]cn1)C(=O)N[C@@H](CCC(N)=O)C(=O)NC(C)(C)C(=O)N[C@@H](CCC(=O)O)C(=O)N[C@@H](Cc1ccccc1)C(=O)N[C@H](C(=O)N[C@@H](CCC(=O)O)C(=O)N[C@@H](Cc1ccncc1)C(=O)N[C@@H](CC(C)C)C(=O)N[C@@H](CC(C)C)C(=O)N[C@@H](C)C(=O)N[C@H](C(=O)NCC(=O)N1CCC[C@H]1C(=O)N[C@@H](CO)C(=O)N[C@@H](CO)C(=O)NCC(=O)N[C@@H](C)C(=O)N1CCC[C@H]1C(=O)N1CCC[C@H]1C(=O)N1CCC[C@H]1C(=O)N[C@@H](CO)C(N)=O)[C@@H](C)O)C(C)C) [Example 61] | > 5 | 192 | 0.0167
Y[Aib]EGT[αMeF]ISDYSI[αMeL]LDKK([AEEA-AEEA-γGlu-C20 diacid])HQ[Aib]EFVE[4Pal]LLAQGPSSGAPPPS-NH2 (N-terminus assumed; SMILES CC[C@H](C)[C@H](NC(=O)[C@H](CO)NC(=O)[C@H](Cc1ccc(O)cc1)NC(=O)[C@H](CC(=O)O)NC(=O)[C@H](CO)NC(=O)[C@@H](NC(=O)[C@](C)(Cc1ccccc1)NC(=O)[C@@H](NC(=O)CNC(=O)[C@H](CCC(=O)O)NC(=O)C(C)(C)NC(=O)[C@@H](N)Cc1ccc(O)cc1)[C@@H](C)O)[C@@H](C)CC)C(=O)N[C@@](C)(CC(C)C)C(=O)N[C@@H](CC(C)C)C(=O)N[C@@H](CC(=O)O)C(=O)N[C@@H](CCCCN)C(=O)N[C@@H](CCCCNC(=O)COCCOCCNC(=O)COCCOCCNC(=O)CC[C@H](NC(=O)CCCCCCCCCCCCCCCCCCC(=O)O)C(=O)O)C(=O)N[C@@H](Cc1c[nH]cn1)C(=O)N[C@@H](CCC(N)=O)C(=O)NC(C)(C)C(=O)N[C@@H](CCC(=O)O)C(=O)N[C@@H](Cc1ccccc1)C(=O)N[C@H](C(=O)N[C@@H](CCC(=O)O)C(=O)N[C@@H](Cc1ccncc1)C(=O)N[C@@H](CC(C)C)C(=O)N[C@@H](CC(C)C)C(=O)N[C@@H](C)C(=O)N[C@@H](CCC(N)=O)C(=O)NCC(=O)N1CCC[C@H]1C(=O)N[C@@H](CO)C(=O)N[C@@H](CO)C(=O)NCC(=O)N[C@@H](C)C(=O)N1CCC[C@H]1C(=O)N1CCC[C@H]1C(=O)N1CCC[C@H]1C(=O)N[C@@H](CO)C(N)=O)C(C)C) [Example 60] | > 5 | 71 | 0.0369
Y[Aib]EGTFISDYSI[αMeL]LDKK([AEEA-AEEA-γGlu-C20 diacid])HQ[Aib]EFVE[4Pal]LLAAGPSSGAPPPS-NH2 (N-terminus assumed; SMILES CC[C@H](C)[C@H](NC(=O)[C@H](Cc1ccccc1)NC(=O)[C@@H](NC(=O)CNC(=O)[C@H](CCC(=O)O)NC(=O)C(C)(C)NC(=O)[C@@H](N)Cc1ccc(O)cc1)[C@@H](C)O)C(=O)N[C@@H](CO)C(=O)N[C@@H](CC(=O)O)C(=O)N[C@@H](Cc1ccc(O)cc1)C(=O)N[C@@H](CO)C(=O)N[C@H](C(=O)N[C@@](C)(CC(C)C)C(=O)N[C@@H](CC(C)C)C(=O)N[C@@H](CC(=O)O)C(=O)N[C@@H](CCCCN)C(=O)N[C@@H](CCCCNC(=O)COCCOCCNC(=O)COCCOCCNC(=O)CC[C@H](NC(=O)CCCCCCCCCCCCCCCCCCC(=O)O)C(=O)O)C(=O)N[C@@H](Cc1c[nH]cn1)C(=O)N[C@@H](CCC(N)=O)C(=O)NC(C)(C)C(=O)N[C@@H](CCC(=O)O)C(=O)N[C@@H](Cc1ccccc1)C(=O)N[C@H](C(=O)N[C@@H](CCC(=O)O)C(=O)N[C@@H](Cc1ccncc1)C(=O)N[C@@H](CC(C)C)C(=O)N[C@@H](CC(C)C)C(=O)N[C@@H](C)C(=O)N[C@@H](C)C(=O)NCC(=O)N1CCC[C@H]1C(=O)N[C@@H](CO)C(=O)N[C@@H](CO)C(=O)NCC(=O)N[C@@H](C)C(=O)N1CCC[C@H]1C(=O)N1CCC[C@H]1C(=O)N1CCC[C@H]1C(=O)N[C@@H](CO)C(N)=O)C(C)C)[C@@H](C)CC) [Example 59] | > 5 | > 5000 | 0.0202
